Measurements as given in patent publication US20060253917A1 (published 2006).

B1: OsPN23226 aa 345-432 (other)
chain: WFMSNQETSFVTIGQRVLANPLRVRFHYGHPDIFDRLFHLTRGGVSKASKIINLSEDIFAGFNSTLREGNVTHHEYMQVGKGRDVGLN
notes: prey, AD fusion; also called Novel Protein PN23226, Callose synthase
B2: OsHOS59 aa 1-100 (other)
chain: LDLFMTHYVLLLCSFKEQLQQHVRVHAMEAVMACWELEQTLQSLTGASPREGSGATMSDDEDNQVDSESNMFDGNDGSDGMGFGPLMLTEGERSLVERVR
notes: bait, Gal4 DBD fusion; also called PN20559; O. sativa Homeobox Protein HOS59, Fragment
B3: OsPN23829 aa 3-220 (other)
chain: LSVEKTSSGREYKVKDLSQADFGRLEIELAEVEMPGLMACRAEFGPSQPFKGARISGSLHMTIQTAVLIETLTALGAEVRWCSCNIFSTQDHAAAAIARDSAAVFAWKGETLEEYWWCTERCLDWGVGGGPDLIVDDGGDATLLIHEGVKAEEEFEKSGKVPDPESTDNAEFKIVLTIIRDGLKSDPSKYRKMKERLVGVSEETTTGVKRLYQMQETG
notes: prey, AD fusion
B4: OsAAD27557 aa 7-142 (other)
chain: DFQPRTFSIKLWPPSESTRLMLVERMTKNLSTESIFSRKYGLLGKEEAHDNAKRIEEVCFASADEHFKEEPDGDGSSAVQLYAKETSKLMLEVLKRGPRTTVEPEVPVADTPLEPADSVFDISGGKRAFIEADEAK
notes: prey, AD fusion; also called PN22896
B5: OsAAD27557 aa 1-149 (other)
chain: MDSTKQDFQPRTFSIKLWPPSESTRLMLVERMTKNLSTESIFSRKYGLLGKEEAHDNAKRIEEVCFASADEHFKEEPDGDGSSAVQLYAKETSKLMLEVLKRGPRTTVEPEVPVADTPLEPADSVFDISGGKRAFIEADEAKELLSPLI
notes: as for B4
B6: Os006819-2510 aa 1-150 (other)
chain: MAFRLSNSLLGILNAVTFLLSVPVLGGGIWLATRADGTECERYFSAPVIAFGVFLLLVSLAGLVGACCRVNCLLWFYLVAMFVLIVVLFCFTVFAFVVTNKGAGEAVSGRGYKEYRLGDYSNWLQKRMENSKNWNRIRSCLQDSKVCKKL
notes: bait, Gal4 DBD fusion; also called PN20462; Hypothetical Protein 006819-2510, Similar to Senescence-Related Protein 5 from Hemerocallis Hybrid Cultivar
B7: OsPN29037 aa 73-165 (other)
chain: VVFDKDGVLEQIGEGKGYVDMSTVDAATSCKISEAIKQKGGAFVEAPVSGSKKPAEDGQLVILAAGDKVLYDDMVPAFDVLGKKSFFLGEIGN
notes: prey, AD fusion; also called Novel Protein PN29037
B8: OsDAD1 aa 1-115 (other)
chain: MPRATSDAKLLIQSLGKAYAATPTNLKIIDLYVVFAVATALIQVVYMGIVGSFPFNSFLSGVLSCIGTAVLAVCLRIQVNKDNKEFKDLPPERAFADFVLCNLVLHLVIMNFLG
notes: bait, Gal4 DBD fusion; also called PN20251
B9: OsPN23251 aa 112-291 (other)
chain: DMNLITDQDFTELVQKVPDDCLFTIVSDSCHSGGLLDKTKEQIGHSTKQNQAQQIKREERSDSGTGGFRSFLKETLKETVRDAFESRGVHIPHQSSRRNDDEDEEPHMGSSSHGGDRIKNRSLPLSTLIEMLKEKTGKDDIDVGSIRMTLFSLFGDDASPKIKKFMKVMLTKLQEGQHGG
notes: prey, AD fusion; also called Novel Protein PN23251
B10: Os006819-2510 aa 1-273 (other)
chain: MAFRLSNSLLGILNAVTFLLSVPVLGGGIWLATRADGTECERYFSAPVIAFGVFLLLVSLAGLVGACCRVNCLLWFYLVAMFVLIVVLFCFTVFAFVVTNKGAGEAVSGRGYKEYRLGDYSNWLQKRMENSKNWNRIRSCLQDSKVCKKLQDKNWDRTQFFKADLSPLESGCCKPPSSCNFLYVSGTNWTKVPTNSSDPDCNTWVDDGTQLCYNCQSCKAGAVATLKRDWKRVAVVCIVFLVFIVIVYSLGCCAFRNNRRDNRGAYRGAAWKG
notes: bait, Gal4 DBD fusion; also called PN20462
B11: OsDAD1 aa 30-115 (other)
chain: DLYVVFAVATALIQVVYMGIVGSFPFNSFLSGVLSCIGTAVLAVCLRIQVNKDNKEFKDLPPERAFADFVLCNLVLHLVIMNFLG
notes: bait, Gal4 DBD fusion; also called PN20251; O. sativa Defender Against Apoptotic Death 1
B12: OsPN23878 aa 685-888 (other)
chain: IYEQGLVLQQLKCCGVLEVVRISRSGYPTRMTHQKFARRYGFLLLEDVASQDPLSVSVAILHQFNILPEMYQVGYTKLFFRTGQIGKLEDTRNRTLHGILRVQSCFRGHQARRHARERIRGVLALQSFIRGENARKMYSSLARKHRAAIILQRNLKCWLARRYFVNIRKASVVIQSGIRGCLVRRCAGNVDLLNVLREFESKKE
notes: prey, AD fusion; also called Oryza sativa Putative Myosin (AAL31066.1)
B13: OsGF14-c aa 1-150 (other)
chain: MSREENVYMAKLAEQAERYEEMVEYMEKVAKTVDVEELTVEERNLLSVAYKNVIGARRASWRIVSSIEQKEEGRGNEEHVTLIKEYRGKIEAELSKICDGILKLLDSHLVPSSTAAESKVFYLKMKGDYHRYLAEFKTGAERKEAAESTM
notes: bait, Gal4 DBD fusion; also called PN12464; O. sativa 14-3-3 Protein Homolog GF14-c
B14: Os018989-4003 aa 69-294 (other)
chain: GGGGNAAEREEGGANRNGKKEKTGAQRITGWGLREFSKIVSKKVEAKGRTTYNEVADEIFAELKSITQNGLEFDEKNIRRRVYDAFNVLIAIRVIAKDKKEIKWMGLTNYRYEKIQKLEEVHKELITRIKNKKKLLQEIEKQFDDLQNITLRNQASQRPAESVNGILLPFLLIKTSRKARVEIEISEDSKFARFDFNGAPFTMHDDVSILEAIRRNKGRAGLSIHP
notes: prey, AD fusion; also called PN21044

What was measured:
[1] = target: B10; experiment: Y2H; output trait library
Summary of the method: (§1)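 Protein-protein interactions were detected with an automated, high-throughput yeast two-hybrid assay provided by Myriad Genetics Inc. (Salt Lake City, Utah). A bait clone encoding a defined amino-acid fragment of a rice protein was screened against a rice prey library, either the input trait or the output trait library. Prey clones were retrieved, and their encoding sequences were compared by BLAST against databases to identify the interacting proteins.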

[2] = target: T1, Os000221-3976 aa 123-238 (Oryza sativa, UniProt Q07078 342-457); experiment: Y2H; input trait library
T1 construct: prey, AD fusion; also called PN23169
Summary of the method: as §1

[3] = target: T2, Os005792-3529 aa 1-55 (Oryza sativa); experiment: Y2H; output trait library
T2 construct: bait, Gal4 DBD fusion; also called PN20080; Hypothetical Protein 005792-3529 Similar to O. sativa Receptor Kinase
T2 chain: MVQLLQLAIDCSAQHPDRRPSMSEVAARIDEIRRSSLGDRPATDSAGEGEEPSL
Summary of the method: as §1

[4] = target: B2; experiment: Y2H; input trait library
Summary of the method: as §1

[5] = target: T3, Os003181-3684 aa 58-140 (Oryza sativa); experiment: Y2H; output trait library
T3 construct: bait, Gal4 DBD fusion; also called PN21036; Hypothetical Protein 003181-3684
T3 chain: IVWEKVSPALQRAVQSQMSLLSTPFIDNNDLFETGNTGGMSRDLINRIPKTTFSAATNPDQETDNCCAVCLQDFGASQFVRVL
Summary of the method: as §1

[6] = target: T4, OsAAK01712 aa 90-221 (Oryza sativa, UniProt Q7Y0Y8 90-221); experiment: Y2H; output trait library
T4 construct: prey, AD fusion; also called PN24059; O. sativa Histone Deacetylase HD1
Summary of the method: as §1

[7] = target: B6; experiment: Y2H; input trait library
Summary of the method: as §1

[8] = target: T5, OsEXPB2 aa 80-207 (Oryza sativa, UniProt O24230 80-207); experiment: Y2H; input trait library
T5 construct: prey, AD fusion; also called PN19902; Beta-Expansin EXPB2
T5 sequence: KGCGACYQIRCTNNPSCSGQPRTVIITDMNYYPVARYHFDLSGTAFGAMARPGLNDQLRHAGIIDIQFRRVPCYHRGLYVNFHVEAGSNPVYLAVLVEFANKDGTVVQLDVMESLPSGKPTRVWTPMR
Summary of the method: as §1

[9] = target: T6, OsHOS59 aa 1-206 (Oryza sativa, UniProt Q94LW4 113-311); experiment: Y2H; input trait library
T6 construct: bait, Gal4 DBD fusion; also called PN20559
T6 sequence: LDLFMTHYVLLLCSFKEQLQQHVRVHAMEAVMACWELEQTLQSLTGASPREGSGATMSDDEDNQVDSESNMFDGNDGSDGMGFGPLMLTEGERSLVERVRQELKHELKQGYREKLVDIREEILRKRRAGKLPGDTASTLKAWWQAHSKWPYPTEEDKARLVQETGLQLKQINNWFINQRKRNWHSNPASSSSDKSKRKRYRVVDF
Summary of the method: as §1

[10] = target: T7, OsPN23485 aa 90-243 (Oryza sativa, UniProt Q7XPL2 165-318); experiment: Y2H; output trait library
T7 construct: prey, AD fusion; also called Novel Protein PN23485, Similar to Hordeum vulgare Coproporphyrinogen III Oxidase, chloroplast precursor
T7 sequence: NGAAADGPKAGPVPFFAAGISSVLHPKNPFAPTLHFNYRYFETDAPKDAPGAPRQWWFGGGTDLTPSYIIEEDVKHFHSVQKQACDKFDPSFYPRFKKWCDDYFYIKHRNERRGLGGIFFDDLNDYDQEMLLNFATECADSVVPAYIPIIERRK
Summary of the method: as §1

[11] = target: T8, OsEXPB2 aa 80-218 (Oryza sativa, UniProt O24230 80-218); experiment: Y2H; input trait library
T8 construct: prey, AD fusion; also called PN19902
T8 sequence: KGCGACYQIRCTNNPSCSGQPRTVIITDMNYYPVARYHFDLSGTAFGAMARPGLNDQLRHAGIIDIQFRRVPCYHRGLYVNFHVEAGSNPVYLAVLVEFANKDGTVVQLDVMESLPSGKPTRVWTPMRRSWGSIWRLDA
Summary of the method: as §1

[12] = target: T9, OsPN23053 aa 1-180 (Oryza sativa, UniProt Q8W0H5 141-320); experiment: Y2H; input trait library
T9 construct: prey, AD fusion; also called Novel Protein 23053, Fragment, Similar to Arabidopsis Putative Na+-Dependent Inorganic Phosphate Cotransporter
T9 sequence: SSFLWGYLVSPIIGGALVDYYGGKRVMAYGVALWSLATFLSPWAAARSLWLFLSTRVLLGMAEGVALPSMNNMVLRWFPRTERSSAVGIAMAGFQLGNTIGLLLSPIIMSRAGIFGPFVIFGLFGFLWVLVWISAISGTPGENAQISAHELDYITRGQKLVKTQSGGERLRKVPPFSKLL
Summary of the method: as §1

[13] = target: B6; experiment: Y2H; output trait library
Summary of the method: as §1

[14] = target: T10, OsRBCL aa 287-462 (Oryza sativa, UniProt P0C510 287-462); experiment: Y2H; input trait library
T10 construct: prey, AD fusion; also called PN23426; O. sativa Chloroplast Ribulose Bisphosphate Carboxylase, Large Chain
Summary of the method: as §1

[15] = target: T11, OsE2F2 (367) aa 1-368 (Oryza sativa); experiment: Y2H; input trait library
T11 construct: bait, Gal4 DBD fusion; also called PN21003; E2F2 Homolog, Alt
Summary of the method: as §1

T10 sequence (P0C510 287-462): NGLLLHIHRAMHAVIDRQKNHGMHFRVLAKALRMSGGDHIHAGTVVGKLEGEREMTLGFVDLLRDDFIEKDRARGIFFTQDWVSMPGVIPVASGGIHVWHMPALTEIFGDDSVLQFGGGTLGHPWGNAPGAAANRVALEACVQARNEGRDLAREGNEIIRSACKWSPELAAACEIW
T4 sequence (Q7Y0Y8 90-221): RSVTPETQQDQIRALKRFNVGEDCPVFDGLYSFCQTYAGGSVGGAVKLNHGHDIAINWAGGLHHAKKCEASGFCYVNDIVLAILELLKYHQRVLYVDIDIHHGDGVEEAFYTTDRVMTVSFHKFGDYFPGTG
T11 sequence (chain, as listed by the source limits assumed): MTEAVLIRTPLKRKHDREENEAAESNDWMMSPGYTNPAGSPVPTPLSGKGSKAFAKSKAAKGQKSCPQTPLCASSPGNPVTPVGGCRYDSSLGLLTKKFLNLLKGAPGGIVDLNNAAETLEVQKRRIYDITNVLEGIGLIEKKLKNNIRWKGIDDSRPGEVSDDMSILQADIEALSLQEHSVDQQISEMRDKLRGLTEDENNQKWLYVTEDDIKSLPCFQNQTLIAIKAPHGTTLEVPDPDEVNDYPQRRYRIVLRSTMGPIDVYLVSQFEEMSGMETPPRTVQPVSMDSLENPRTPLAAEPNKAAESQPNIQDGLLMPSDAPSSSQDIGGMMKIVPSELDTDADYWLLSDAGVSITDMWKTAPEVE
T1 sequence (Q07078 342-457): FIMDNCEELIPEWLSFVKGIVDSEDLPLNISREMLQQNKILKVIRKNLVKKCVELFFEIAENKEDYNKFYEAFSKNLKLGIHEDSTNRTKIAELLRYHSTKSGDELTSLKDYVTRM

B1
binding result [1]: binds

B2
binding result [2]: binds

B3
binding result [3]: binds

B4
binding result [4]: binds

B5
binding result [5]: binds

B6
binding result [6]: binds

B7
binding result [7]: binds

B8
binding result [8]: binds

B9
binding result [9]: binds

B10
binding result [10]: binds

B11
binding result [11]: binds | binding result [12]: binds

B12
binding result [13]: binds

B13
binding result [14]: binds

B14
binding result [15]: binds
